Assay results published in patent US20200268901A1.

Molecular target: human GITR on cells (activated human T cells; 3A9-hGITR cells) (human) (UniProt Q9Y5U5)
Assay: flow cytometry on anti-CD3/CD28-activated human CD4 T cells, GMFI (PE); fitted value of a flat control curve, unit from the axis

Chain of human GITR on cells (activated human T cells; 3A9-hGITR cells) (human) (Q9Y5U5 26-241): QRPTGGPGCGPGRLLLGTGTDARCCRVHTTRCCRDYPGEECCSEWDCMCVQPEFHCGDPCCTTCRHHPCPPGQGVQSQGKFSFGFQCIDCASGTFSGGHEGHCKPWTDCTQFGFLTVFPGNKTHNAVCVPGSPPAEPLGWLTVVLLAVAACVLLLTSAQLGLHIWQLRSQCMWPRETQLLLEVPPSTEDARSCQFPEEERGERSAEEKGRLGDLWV

Substance: hIgG1 Isotype Control (antibody)
- EC50: 132 nM
